# Reference: patent US20200115416A1 (REGENTS OF THE UNIVERSITY OF MINNESOTA, published 2020)
# Square brackets hold non-standard residues; d marks the D form. Nle = CCCC[C@H](N)C(=O)O
# B1: c[Pro-Arg-Phe-Phe-Asn-Ser-Phe-DPro] (peptide)
# peptide: cyclo(PRFFNSF[dP])
# SMILES: N=C(N)NCCC[C@@H]1NC(=O)[C@@H]2CCCN2C(=O)[C@H]2CCCN2C(=O)[C@H](Cc2ccccc2)NC(=O)[C@H](CO)NC(=O)[C@H](CC(N)=O)NC(=O)[C@H](Cc2ccccc2)NC(=O)[C@H](Cc2ccccc2)NC1=O
# B2: hAGRP(86-132) (ligand, human, UniProt O00253 86-132, looked up)
# chain: RCVRLHESCLGQQVPCCDPCATCYCRFFNAFCYCRKLGTAMNPCSRT
# notes: range 86-132; also called C-terminal domain of AGRP
# Molecular target: T1, mouse melanocortin-1 receptor (mouse, UniProt Q01727 1-315)
# T1 sequence (Q01727 whole entry): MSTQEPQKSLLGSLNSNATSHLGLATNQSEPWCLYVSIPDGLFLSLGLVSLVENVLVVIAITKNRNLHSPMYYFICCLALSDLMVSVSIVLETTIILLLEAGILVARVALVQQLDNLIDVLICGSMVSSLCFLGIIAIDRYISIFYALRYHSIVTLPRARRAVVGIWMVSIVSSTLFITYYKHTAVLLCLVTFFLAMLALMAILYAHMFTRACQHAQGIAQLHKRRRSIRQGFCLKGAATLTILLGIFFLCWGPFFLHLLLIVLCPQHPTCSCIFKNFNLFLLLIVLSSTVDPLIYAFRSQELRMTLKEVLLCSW
# Test: cell-based or functional assay
"partial agonist, % receptor stimulation",agonist EC50 (cAMP AlphaScreen),Binder
50%,–,cyclo(PRFFNA[Nle][dP]) [c[Pro-Arg-Phe-Phe-Asn-Ala-Nle-DPro]]
80%,1.6 µM,PRFFXAFP (head-to-tail cyclic; Dap at 5; DPro at 8) [c[Pro-Arg-Phe-Phe-Dap-Ala-Phe-DPro]]
–,1.2 µM,B1
80%,2.8 µM,cyclo(PRFFNAF[dP]) (also: assayed as TFA salt) [c[Pro-Arg-Phe-Phe-Asn-Ala-Phe-DPro]]

# Molecular target: T2, mouse melanocortin-5 receptor (mouse, UniProt P41149 1-325)
# T2 sequence (P41149 whole entry): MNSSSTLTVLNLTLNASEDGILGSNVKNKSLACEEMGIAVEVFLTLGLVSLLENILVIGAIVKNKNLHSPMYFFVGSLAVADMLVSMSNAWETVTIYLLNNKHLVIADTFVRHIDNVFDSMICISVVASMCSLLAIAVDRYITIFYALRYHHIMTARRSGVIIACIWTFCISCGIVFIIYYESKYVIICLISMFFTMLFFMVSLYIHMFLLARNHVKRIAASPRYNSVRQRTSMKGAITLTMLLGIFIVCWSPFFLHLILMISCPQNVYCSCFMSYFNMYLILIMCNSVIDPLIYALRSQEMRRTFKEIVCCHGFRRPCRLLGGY
# Test: cell-based or functional assay
"EC50 (cAMP AlphaScreen, inverse agonist)","inverse agonist efficacy, % relative to basal",Binder
> 100 µM,–,PRFFXAFP (head-to-tail cyclic; Dap at 5; DPro at 8) [c[Pro-Arg-Phe-Phe-Dap-Ala-Phe-DPro]]
–,-14%,B1

# Molecular target: T1, mouse melanocortin-1 receptor
# Test: cell-based or functional assay
# Remark: another data set of the same source
agonist EC50 (cAMP AlphaScreen),% maximal NDP-MSH response at 100 µM (cAMP AlphaScreen),Binder
> 100 µM,–,PRFFXAFP (head-to-tail cyclic; DDap at 5; DPro at 8) [c[Pro-Arg-Phe-Phe-DDap-Ala-Phe-DPro]]
–,30%,PRFFXAFP (head-to-tail cyclic; Dap at 5; DPro at 8) [c[Pro-Arg-Phe-Phe-Dap-Ala-Phe-DPro]]
> 100 µM,–,PRFFXAFP (head-to-tail cyclic; Abu at 5; DPro at 8) [c[Pro-Arg-Phe-Phe-Abu-Ala-Phe-DPro]]
> 100 µM,–,B1
> 100 µM,–,cyclo(PRFFAAF[dP]) [c[Pro-Arg-Phe-Phe-Ala-Ala-Phe-DPro]]
> 100 µM,–,cyclo(PRFFDAF[dP]) [c[Pro-Arg-Phe-Phe-Asp-Ala-Phe-DPro]]
–,25%,cyclo(PRFFNAF[dP]) (also: assayed as TFA salt) [c[Pro-Arg-Phe-Phe-Asn-Ala-Phe-DPro]]
> 100 µM,–,cyclo(PRFFSAF[dP]) [c[Pro-Arg-Phe-Phe-Ser-Ala-Phe-DPro]]
20.5 µM,–,cyclo(PRFFEAF[dP]) [c[Pro-Arg-Phe-Phe-Glu-Ala-Phe-DPro]]

# Molecular target: T3, mouse melanocortin-4 receptor (mouse, UniProt P56450 1-332)
# T3 sequence (P56450 whole entry): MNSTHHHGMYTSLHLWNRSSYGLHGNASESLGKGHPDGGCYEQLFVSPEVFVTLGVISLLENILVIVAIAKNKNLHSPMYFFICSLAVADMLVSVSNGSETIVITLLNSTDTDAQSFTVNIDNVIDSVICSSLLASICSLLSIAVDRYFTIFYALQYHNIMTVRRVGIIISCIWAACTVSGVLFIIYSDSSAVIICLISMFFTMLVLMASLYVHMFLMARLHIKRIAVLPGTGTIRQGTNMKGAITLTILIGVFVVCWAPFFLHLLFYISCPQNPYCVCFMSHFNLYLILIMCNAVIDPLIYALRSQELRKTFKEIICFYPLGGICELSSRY
# Test: cell-based or functional assay
agonist EC50 (cAMP AlphaScreen),"antagonist pA2 (Schild, agonist NDP-MSH)",Binder
> 100 µM,8.2,B1
–,8.7,B2
> 100 µM,7.32,cyclo(PRFFAAF[dP]) [c[Pro-Arg-Phe-Phe-Ala-Ala-Phe-DPro]]
> 100 µM,6.79,cyclo(PRFFDAF[dP]) [c[Pro-Arg-Phe-Phe-Asp-Ala-Phe-DPro]]
> 100 µM,7.7,cyclo(PRFFSAF[dP]) [c[Pro-Arg-Phe-Phe-Ser-Ala-Phe-DPro]]
> 100 µM,7,cyclo(PRFFEAF[dP]) [c[Pro-Arg-Phe-Phe-Glu-Ala-Phe-DPro]]

# Molecular target: T2, mouse melanocortin-5 receptor
# Test: cell-based or functional assay
# Remark: another data set of the same source
inverse agonist apparent potency,"inverse agonist, % decrease from basal cAMP","inverse agonist, % change from basal cAMP at 100 µM",Binder
0.11 µM,-10%,–,PRFFXAFP (head-to-tail cyclic; DDap at 5; DPro at 8) [c[Pro-Arg-Phe-Phe-DDap-Ala-Phe-DPro]]
0.06 µM,-15%,–,PRFFXAFP (head-to-tail cyclic; Dap at 5; DPro at 8) [c[Pro-Arg-Phe-Phe-Dap-Ala-Phe-DPro]]
0.16 µM,-20%,–,PRFFXAFP (head-to-tail cyclic; Abu at 5; DPro at 8) [c[Pro-Arg-Phe-Phe-Abu-Ala-Phe-DPro]]
–,–,-30%,B1
0.25 µM,-20%,–,cyclo(PRFFAAF[dP]) [c[Pro-Arg-Phe-Phe-Ala-Ala-Phe-DPro]]
–,–,-25%,cyclo(PRFFDAF[dP]) [c[Pro-Arg-Phe-Phe-Asp-Ala-Phe-DPro]]
0.14 µM,-25%,–,cyclo(PRFFSAF[dP]) [c[Pro-Arg-Phe-Phe-Ser-Ala-Phe-DPro]]
0.7 µM,-10%,–,cyclo(PRFFEAF[dP]) [c[Pro-Arg-Phe-Phe-Glu-Ala-Phe-DPro]]

# Molecular target: T4, mouse melanocortin-3 receptor (mouse, UniProt P33033 1-323)
# T4 sequence (P33033 whole entry): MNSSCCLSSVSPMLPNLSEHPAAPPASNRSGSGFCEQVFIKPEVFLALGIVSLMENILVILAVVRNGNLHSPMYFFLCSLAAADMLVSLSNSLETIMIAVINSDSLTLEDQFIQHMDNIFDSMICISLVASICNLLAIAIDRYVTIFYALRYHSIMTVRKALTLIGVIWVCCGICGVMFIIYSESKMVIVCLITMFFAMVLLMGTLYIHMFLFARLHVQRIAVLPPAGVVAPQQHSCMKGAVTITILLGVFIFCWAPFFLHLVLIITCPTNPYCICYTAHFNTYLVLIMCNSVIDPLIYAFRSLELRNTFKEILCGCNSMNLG
# Test: cell-based or functional assay
agonist EC50 (cAMP AlphaScreen),"antagonist pA2 (Schild, agonist NDP-MSH)",Binder
> 100 µM,6.7,PRFFXAFP (head-to-tail cyclic; DDap at 5; DPro at 8) [c[Pro-Arg-Phe-Phe-DDap-Ala-Phe-DPro]]
> 100 µM,6.52,PRFFXAFP (head-to-tail cyclic; Dap at 5; DPro at 8) [c[Pro-Arg-Phe-Phe-Dap-Ala-Phe-DPro]]
> 100 µM,< 5.5,PRFFXAFP (head-to-tail cyclic; Abu at 5; DPro at 8) [c[Pro-Arg-Phe-Phe-Abu-Ala-Phe-DPro]]
> 100 µM,6.2,B1
–,8.7,B2
> 100 µM,< 5.5,cyclo(PRFFAAF[dP]) [c[Pro-Arg-Phe-Phe-Ala-Ala-Phe-DPro]]
> 100 µM,< 5.5,cyclo(PRFFDAF[dP]) [c[Pro-Arg-Phe-Phe-Asp-Ala-Phe-DPro]]
> 100 µM,5.9,cyclo(PRFFSAF[dP]) [c[Pro-Arg-Phe-Phe-Ser-Ala-Phe-DPro]]
> 100 µM,< 5.5,cyclo(PRFFEAF[dP]) [c[Pro-Arg-Phe-Phe-Glu-Ala-Phe-DPro]]

# Molecular target: T5, human melanocortin-4 receptor (human, UniProt P32245 1-332)
# T5 construct: whole, on cells; in the thallium flux assay co-expressed with Kir7.1 (M125R); also called hMC4R; wildtype hMC4R
# Test: displacement of 125I-AGRP, HEK293 cells expressing hMC4R
# Protocol: (§1) Competitive binding affinity experiments were performed on HEK-293 cells stably expressing the wildtype hMC4R. […] The assay media was carefully aspirated and cells were washed once with assay buffer. Cell were lysed with 500 μL 0.1 M NaOH and 500 μL 1% Triton X-100 for a minimum of 10 min. […] All experiments were performed with duplicate data points and in at least two independent experimental replicates. […] Concentration-response curves and IC₅₀ values were generated and analyzed by the PRISM program (version 4.0. GraphPad Inc.) by a nonlinear regression method. The standard error of the mean (SEM) was derived from the IC₅₀ values from at least two independent experimental replicates.
row,IC50,Binder
1,0.012 µM,B2
2,1.3 µM,cyclo(PRFFDAF[dP]) [c[Pro-Arg-Phe-Phe-Asp-Ala-Phe-DPro]]
3,1.4 µM,cyclo(PRFFEAF[dP]) [c[Pro-Arg-Phe-Phe-Glu-Ala-Phe-DPro]]

# Molecular target: T3, mouse melanocortin-4 receptor
# Test: cell-based or functional assay
# Remark: another data set of the same source
row,"antagonist pA2 (Schild, agonist NDP-MSH)",Binder
1,8.1,B1

# Molecular target: T4, mouse melanocortin-3 receptor
# Test: cell-based or functional assay
# Remark: another data set of the same source
row,"antagonist pA2 (Schild, agonist NDP-MSH)",Binder
1,6.1,B1

# Molecular target: T1, mouse melanocortin-1 receptor
# Test: cell-based or functional assay
# Remark: another data set of the same source
agonist EC50 (cAMP AlphaScreen),"partial agonist efficacy, % of NDP-MSH",Binder
0.45 µM,70%,PRFFXAFP (head-to-tail cyclic; DArg at 2; DPhe at 4; Dap at 5; DPro at 8) [c[Pro-DArg-Phe-DPhe-Dap-Ala-Phe-DPro]]
1.2 µM,–,cyclo(P[dR]F[dF]NAF[dP]) [c[Pro-DArg-Phe-DPhe-Asn-Ala-Phe-DPro]]

# Molecular target: T2, mouse melanocortin-5 receptor
# Test: cell-based or functional assay
# Remark: another data set of the same source
row,"inverse agonist, % change from basal cAMP at 100 µM",Binder
1,-20%,PRFFXAFP (head-to-tail cyclic; DArg at 2; DPhe at 4; Dap at 5; DPro at 8) [c[Pro-DArg-Phe-DPhe-Dap-Ala-Phe-DPro]]

# Molecular target: T4, mouse melanocortin-3 receptor
# Test: cell-based or functional assay
# Remark: another data set of the same source
agonist EC50 (cAMP AlphaScreen),"antagonist pA2 (Schild, agonist NDP-MSH)",% maximal NDP-MSH response at 100 µM (cAMP AlphaScreen),Binder
> 100 µM,5.7,–,PRFFXAFP (head-to-tail cyclic; DArg at 2; DPhe at 4; Dap at 5; DPro at 8) [c[Pro-DArg-Phe-DPhe-Dap-Ala-Phe-DPro]]
–,–,35%,cyclo(P[dR]F[dF]NAF[dP]) [c[Pro-DArg-Phe-DPhe-Asn-Ala-Phe-DPro]]

# Molecular target: T5, human melanocortin-4 receptor
# Test: displacement of 125I-NDP-MSH, HEK293 cells expressing hMC4R
# Protocol: as §1
row,IC50,Binder
1,3.6 µM,cyclo(PRFFDAF[dP]) [c[Pro-Arg-Phe-Phe-Asp-Ala-Phe-DPro]]
2,2.5 µM,cyclo(PRFFEAF[dP]) [c[Pro-Arg-Phe-Phe-Glu-Ala-Phe-DPro]]

# Molecular target: T2, mouse melanocortin-5 receptor
# Test: cell-based or functional assay
# Remark: another data set of the same source
row,"inverse agonist, % change from basal cAMP at 100 µM",Binder
1,-35%,cyclo(PRFFNA[Nle][dP]) [c[Pro-Arg-Phe-Phe-Asn-Ala-Nle-DPro]]

# Molecular target: T5, human melanocortin-4 receptor
# Test: cell-based or functional assay
"inverse agonist, % decrease from basal signal","antagonist pA2 (Schild, agonist NDP-MSH)",inverse agonist apparent potency (EC50),Binder
-30%,–,–,PRFFXAFP (head-to-tail cyclic; DDap at 5; DPro at 8) [c[Pro-Arg-Phe-Phe-DDap-Ala-Phe-DPro]]
-50%,–,–,PRFFXAFP (head-to-tail cyclic; Dap at 5; DPro at 8) [c[Pro-Arg-Phe-Phe-Dap-Ala-Phe-DPro]]
-15%,–,–,PRFFXAFP (head-to-tail cyclic; Abu at 5; DPro at 8) [c[Pro-Arg-Phe-Phe-Abu-Ala-Phe-DPro]]
-35%,8.8,0.0024 µM,B2
-35%,–,–,cyclo(PRFFAAF[dP]) [c[Pro-Arg-Phe-Phe-Ala-Ala-Phe-DPro]]
-30%,–,–,cyclo(PRFFNAF[dP]) (also: assayed as TFA salt) [c[Pro-Arg-Phe-Phe-Asn-Ala-Phe-DPro]]
-25%,–,–,cyclo(PRFFSAF[dP]) [c[Pro-Arg-Phe-Phe-Ser-Ala-Phe-DPro]]
